Assay results as given in patent publication EP4431526A1 (Emfret Analytics GmbH & Co. KG, dated 2024).
Each block holds one binder with its values, some of them ahead of it. Ends that are not written are not given here.

What was measured:
[1] = biological target: human GPVI, membrane expressed on platelets (human) (UniProt Q9HCN6); assay: cell-based or functional assay
[2] = biological target: human GPVI, membrane expressed on platelets (human) (UniProt Q9HCN6); assay: flow cytometry ex vivo, hGP6^tg/tg platelets, 48 h after 4 mg/kg i.v.
[3] = biological target: human GPVI, membrane expressed on platelets (human) (UniProt Q9HCN6); assay: flow cytometry ex vivo, hGP6^tg/tg platelets, 72 h after 4 mg/kg i.v.
[4] = biological target: T1, human GPVI-Fc fusion protein (human, UniProt Q9HCN6 21-267, limits assumed); assay: method not stated at this place (BLI elsewhere); target printed as 'human GPVI'
T1 construct: also called human GPVI protein antigen
T1 sequence (looked up): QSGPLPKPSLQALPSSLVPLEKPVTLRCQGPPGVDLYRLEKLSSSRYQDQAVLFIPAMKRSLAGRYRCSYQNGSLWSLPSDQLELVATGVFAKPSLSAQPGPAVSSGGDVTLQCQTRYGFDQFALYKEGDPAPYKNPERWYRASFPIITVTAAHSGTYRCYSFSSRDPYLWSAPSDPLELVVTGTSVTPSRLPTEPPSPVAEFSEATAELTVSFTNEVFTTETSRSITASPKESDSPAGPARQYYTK

[5] = biological target: human GPVI, membrane expressed on platelets (human) (UniProt Q9HCN6); assay: flow cytometry ex vivo, hGP6^tg/tg platelets, competition with Emf3-FITC, 1 h after 4 mg/kg i.v.
[6] = biological target: human GPVI, membrane expressed on platelets (human) (UniProt Q9HCN6); assay: flow cytometry ex vivo, hGP6^tg/tg platelets, competition with Emf3-FITC, 24 h after 4 mg/kg i.v.
[7] = biological target: human GPVI, membrane expressed on platelets (human) (UniProt Q9HCN6); assay: flow cytometry ex vivo, hGP6^tg/tg platelets, competition with Emf3-FITC, 48 h after 4 mg/kg i.v.
[8] = biological target: human GPVI, membrane expressed on platelets (human) (UniProt Q9HCN6); assay: flow cytometry ex vivo, hGP6^tg/tg platelets, competition with Emf3-FITC, 72 h after 4 mg/kg i.v.
[9] = biological target: human GPVI, membrane expressed on platelets (human) (UniProt Q9HCN6); assay: flow cytometry ex vivo, hGP6^tg/tg platelets, competition with Emf3-FITC, 96 h after 4 mg/kg i.v.
[10] = biological target: human GPVI, membrane expressed on platelets (human) (UniProt Q9HCN6); assay: flow cytometry ex vivo, hGP6^tg/tg platelets, competition with Emf3-FITC, 120 h after 4 mg/kg i.v.
[11] = biological target: T2, GPVI peptide 201V-E215 (human, not fully specified); assay: peptide microarray, HRP anti-mouse IgG
T2 construct: On the array as peptide-cellulose conjugate; as soluble (cleavable, Fmoc-rink-amide linker) peptide in the neutralisation; also called Val201 to Glu215
T2 peptide: VVTGTSVTPSRLPTE

[12] = biological target: T3, GPVI peptide 246S-P260 (human, not fully specified); assay: peptide microarray, HRP anti-mouse IgG
T3 construct: On the array as peptide-cellulose conjugate; as soluble (cleavable, Fmoc-rink-amide linker) peptide in the neutralisation; also called Ser246 to Pro260
T3 peptide: SITASPKESDSPAGP

[13] = biological target: T1, human GPVI-Fc fusion protein; assay: ratio of KD values (0.46 nM against 0.195 nM)
[14] = biological target: T1, human GPVI-Fc fusion protein; assay: BLI (Octet), GPVI-Fc on biosensor, 1:1 fit
[15] = biological target: human GPVI, membrane expressed on platelets (human) (UniProt Q9HCN6); assay: flow cytometry, hGP6^tg/tg platelets, anti-human IgG-Fab detection, EMA601 at 0.1 ug/mL
[16] = biological target: human GPVI, membrane expressed on platelets (human) (UniProt Q9HCN6); assay: flow cytometry, hGP6^tg/tg platelets, anti-human IgG-Fab detection, EMA601 at 0.2 ug/mL
[17] = biological target: human GPVI, membrane expressed on platelets (human) (UniProt Q9HCN6); assay: flow cytometry ex vivo, hGP6^tg/tg platelets, anti-human IgG-Fab-FITC, 1 h after 4 mg/kg i.v.

B1: Emf6.1^Fab (Fab, V domains shown)
VH: QVQLKESGPGLVQPSQSLSITCTVSGFSLTSYGVTWVRQPPGKGLEWLGVIWGDGSTNYHSGLRSRLSISRDDSKSQVFLKLNSLQTDDTATYYCAKPIYYDFDDDAMDYWGQGTSVTVSS
VL: DIVMTQSQKFMSTSVGDRVSVTCKASQNVGTYVAWFQQKPGQSPKTLIYSASYRCSGVPDRFTGSGSGTDFTLTISNVQSDDLAEYFCHQYNNYPLTFGAGTKLELR
notes: also called Fab fragments of Emf6.1
thrombus volume on collagen under flow (1000 s^-1), human blood [1]: 75 % reduction
receptor occupancy [2]: > 50%
receptor occupancy [3]: > 35%
Kd [4]: 0.46 nM
% of the binding epitopes on GPVI occupied [5]: 90%
% of the binding epitopes on GPVI occupied [6]: 76%
% of the binding epitopes on GPVI occupied [7]: 50%
% of the binding epitopes on GPVI occupied [8]: 36%
% of the binding epitopes on GPVI occupied [9]: 19%
% of the binding epitopes on GPVI occupied [10]: 13%

B3: HC1 LC2 humanized Fab (EMA601) (Fab, V domains shown)
VH: QVQLQESGPGLVKPSETLSLTCTASGFSLTSYGVTWIRQPPGKGLEWIGVIWGDGSTNYHSGLRSRVTISVDTSKSQFSLKLSSVTAADTAVYYCAKPIYYDFDDDAMDYWGQGTLVTVSS
VL: DIQMTQSPSSLSASVGDRVTITCKASQNVGTYVAWFQQRPGKAPKSLIYSASYRCSGVPSKFSGSGSGTDFTLTINSLQPEDFATYYCHQYNNYPLTFGQGTKVEIKR
notes: also called EMF601; VH1:VL2
collagen-induced aggregation of washed human platelets [1]: 50 % reduction
potency to inhibit GPVI function in human and hGP6^tg/tg platelets in vitro, against ACT017 [1]: 10 fold
fold increase of affinity against Emf6.1^Fab [13]: ~2.3 fold
Kd [14]: 0.195 nM
koff [14]: 0.000123 s⁻¹
kon [14]: 628000 M⁻¹ s⁻¹
% of the epitopes occupied compared to the highest tested concentration (50 µg/mL) [15]: 57.3%
% of the epitopes occupied compared to the highest tested concentration (50 µg/mL) [16]: 86.2%
fold amount of bound Fab against ACT017 [17]: 1.8 fold

Results, then the binder that gave them:

binding result [11]: binds
binding result [12]: binds
B2: Emf6.1 IgG (mouse IgG2a kappa) (antibody, V domains shown)
VH: QVQLKESGPGLVQPSQSLSITCTVSGFSLTSYGVTWVRQPPGKGLEWLGVIWGDGSTNYHSGLRSRLSISRDDSKSQVFLKLNSLQTDDTATYYCAKPIYYDFDDDAMDYWGQGTSVTVSS
VL: DIVMTQSQKFMSTSVGDRVSVTCKASQNVGTYVAWFQQKPGQSPKTLIYSASYRCSGVPDRFTGSGSGTDFTLTISNVQSDDLAEYFCHQYNNYPLTFGAGTKLELR
notes: Mouse monoclonal IgG2a kappa from hybridoma (subclone of Emf6)

Kd [14]: 0.593 nM
koff [14]: 0.000655 s⁻¹
kon [14]: 1.1e+06 M⁻¹ s⁻¹
B4: HC4 LC3 humanized Fab (Fab, V domains shown)
VH: QVQLVESGGGVVQPGRSLRLSCAASGFSLTSYGVTWVRQSPGKGLEWVAVIWGDGSTNYHSGLRSRLTISRDNSKNTLYLEMNSLRTEDTATYYCAKPIYYDFDDDAMDYWGQGTKVTVSS
VL: DIQLTQSPSTLSASVGDRVTITCKASQNVGTYVAWYQQKPGKAPKLLIYSASYRCSGVPSRFSGSGSGTEFTLTISSLQPDDFTTYYCHQYNNYPLTFGQGTKVEIKR
notes: also called VH4:VL3
